Measured values published in the nanobody polyreactivity screen of Harvey et al. (2022).

Assay: yeast display, Sf9 membrane polyspecificity reagent, FACS + sequencing; frameworks hold sequencing errors
Outline: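 Galactose-induced (36–48 hours) yeast carrying a synthetic nanobody display library were exposed to 10% biotinylated, detergent-solubilized Sf9 membrane reagent at 4 °C for 1 hour. FACS followed streptavidin microbead enrichment, using low and high (top ~1%) gates for expression (anti-HA) and reagent binding (streptavidin). Colony PCR, MiSeq 2 × 250 sequencing and CDR-length filtering followed. Labels for polyreactivity reflect the gate of origin.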

| Sequence | polyreactivity (PSR sort gate) |
| --- | --- |
| QVQLVESGGGLVQAGGSLRLSCAASGLIFVRYAMGWYRQAPGKERELVATITWSGGTTYADSVKGRFTISRDNGKNTVYLQMNSLKPEDTEVYDCAVEWPAWTDSDYPVGGHAFGYWGQVTQVTVSS | low polyreactivity |
| QVQLVESGGGLVQAGGSLRLSCAASGITFKRYAMGWYRQAPGKERELVAAITISAGSTYYADSVKGRFTISRDNAKNTVYLQMNSLKPEDTAVYYCAAESYGSWYYYWGQGTQVTVSS | high polyreactivity |
| QVQLVESGGGLVQAGGSLRLSCAASGFILGYNAMGWYRQEPGKERELVADITFSGGGTNYADSVKGRFTISRDNAKNTVYLQMNSLKPEDTAVYYCNAAAFSQLRVRYDYWGQGTQVTVSS | low polyreactivity |
| QVQLVESGGGLVQAGGSLRLSCAASGSIFRGNAMGWYRQAPGKERELVATITNGGSTNYADSVKGRFTISRDNAKNTVYLQMNSLKPEDTAVYYCNADHSYHIASTRHVDYWGQGTQVTVSS | low polyreactivity |
| QVQLVESGGGLVQAGGSLRLICAASGSIFYGNTMGWYRQARGKERELVAAISSGGSTYYADSVKGRFTISRDNAKNSVYLQMNSLKPEDTAVYYCAREDYSHSFLTYDYWGQGSQVTVSS | low polyreactivity |
| QVQLVESGGGLVQAGGSLRLSCAASGYILYANTMGWYRQAPGKERELVAAISGGGSTNYADSVKGRFTISRDNAKNTVYLQMNSLKPEDTAVYYCAVKTNQAGYDYWGQGTQVTVSS | low polyreactivity |
| QVQLVESGGGLVQAGGSLRLSCAASGSTFIGYVMGWYRQAPGKERELVAAISWTGSNKYYADSVKGRFTISRDNAKNTVYLQMNSLKPEDTAVYYCNARSFAPYKNYDYWGQGTQVTVSS | low polyreactivity |
| QVQLEESGGGLVQPGGSLRLSCAASGRIFADYAMGWYRQAPGKERELVADIRQSGGRTYYADSVKGRFTISRDNAKNTVYLQMNSLKPEDTALYYCATDYGSWGDYSGKYDYWGQGTQVTVSS | low polyreactivity |
| QVQLEESGGGLVQAGGSLRISCAASGITFDDYDMGWYRQAPGKERELVAAITWSGGSTYYADSVKGRFTSSRDNAKNTVYLQMNSLKPEVTAVSYCNAGSTWAYSYPVGKSDLDYWGQGTQVTVSS | low polyreactivity |
| QVQLVESGGGLVQAGGSLSLSCAASGRTIAYYAMGWDRQAPGKEMEFVAAISSTGTSTYYADSVKGRFTISRDNAKNTVYLQMNSLKPEDTGVYYCNARVATYRLHSKFYYWGQRTQVTVSS | high polyreactivity |
| QVQLVESGAGLVQARGSLRLSCAASGRIFYQYAMGWYRQAPGKERELVAAISWNGGRTYYADSVKGRFTISRDNAKNTVYLQMNSLKPEDTAVYYCAASFTGYSRDRYGYWGQGTQVTVSS | high polyreactivity |
| QVQLVESGGGLVQAGGSLRLSCAASGFTFVYYTMGWSSQAPGKERELVAAISSSGGRTSYADSVKGRFTISRDNEKNTVYLQMNSLKPEDTAVYYCAARAYPTWRTYYYWGQGTQVTVSS | high polyreactivity |
| QVQLVESGGGLVQAGGSLRLSCAASGSIIVRYAMGWYRQAPGKERELVATITFRDTSTYYADSVKGRFTISRDNAKNTVYLQMNRLIPEDTAVYYCAAVRADLWDIARYDYWGQGTQVTVSS | low polyreactivity |
| QFQLVESGGGLFQAGGSLRLICAASGSNFGGNTMSWYRHAPGKERDLVAAISRSGTRTYYADSVKGRFTISRDTAKNTVYLQMKSLKPVATAVYYCNAKKVLPPPYDYWGQGTQVTVST | high polyreactivity |
| QVQLVESGGGLVQAGGSLRLSCAASGSTFKAYAMGWYRQAPGKERELVAAITRRGTSTYYADSVKGRFTISRDNAKNTVYLQMNSLKPEDTAVYYCNAKYVSDRSSAVSFDYWGQGTQVTVSS | low polyreactivity |
| QVHLVESGGGLVQAGGSLRLSCAASGFTFLDNAMGWYRQAPGKERELVAAISGIGGSTSYADSVKGRFTISRDNAKNTVYLQMNSLKPEDTAVYYCATRWKTVGRDTIFAYDYWGQGTQVTVSS | low polyreactivity |
| QVQLVESGGGLVQAGGSLRLSCAASGSTFHWYVMGWYRQAPGKERELVAAITWSGGSTYYADSVKGRLTISRDNAKNTVYLQMNSLKPEDTAVYYCNAVFWIWNAGYDYWGQGTQVTVSS | low polyreactivity |
| QVQLVESGGGLVQAGGSLRLSCAASGNIFLYYAMRWYRQAPGKERELVADIDSSGASTYYADSVKVRFTISRDNAKNTVYLQMNSLKPEDTAVYYCAAEFHWWYAGYDYGYWGQGTKVTVSS | low polyreactivity |
| QVQLVESGGGLVQAGGSLRLSCAASGLIFRYYAMGWYRQAPGKERELVAAISSSGTRTYYADSVKGRFTISRDNAKNTVYLQMNSLKPEDTSVYYCATENQNPTGGYWGQGTQVTVSS | high polyreactivity |
| QVQLVQSAVGLVQAGGSLRLICAASGITFLDNAMGWYRQAPGTERELVAAITSDGNPYYADCVKGRFTISRDNAKNTVYLQMNSLKPEDTAVYYCAVEVSDYYTYVSYDYCGQGTQVTVSS | low polyreactivity |
| QVQLVESVGGLVQAGGSLRLSCAASGSTFGTYAMGWYRQAPGKVSELVAAISNSGGSTYYADSVKGRFTISRDNAKNTVYLQMNSLKPEDTAVYYCNTDGLVRNGPFFSWGQGTQVTVSS | low polyreactivity |
| QVQLVESGGGLVQAGGSLRLSCAASGRTFGKYAMGWYRQAPGKERELVAAITNSGGSTYYADSVKGRFTISRDNAKNTVYLQMNSLKPEDTAVYYCNRLGYRGTSKLNHMGYWGQGTQVTVSS | high polyreactivity |

| Sequence | polyreactivity (PSR sort gate) |
| --- | --- |
| QVQLEESGGGLVQAGGSLRLSCAASGSTFGYYAMGWYRQAPGKERELVAAISWSGTRTYYADSVKGRFTISRDNAKNTVYLQMNSLKPEDTAVYYCAAVYRGSYRGSYRFDDSHYDYSGQGTQVTVSS | high polyreactivity |
| QVQLVESGAGLFQAGGRLRLSCAASGRTFQVYAMAWYRHAPGTERELVAAIDLGGGSTYYADSVKGRFTISRDNAKNTVYLQMNSLKQEDTAVYYCAADVGLRFDYWGQGTQVTVSS | high polyreactivity |
| QVQLVESGGGLVQAGGSLRLSCAASGSIFGEYAMGWYRQAPGKERELVADITTGGNTNYADSVKGRFTISRDYAKNTVYLQMNSLKPEDTAVYYCADEANYYVIFHGSWYTDDYWGQGTQVTVSS | low polyreactivity |
| QVQLVESAGGLVLAGGSLRLSCAASGRIFARNAMGWYRQAAGKEREFVAGITWSGSSTYYADSVKARFTISRDNAKNTVYLQMNSLKPEDTAVYYCAVDNYVGSLRIDHDYWGLGTQVTVSS | low polyreactivity |
| QVQLVESGGGLVQAGGSLSLSCAASGRIFAYYAMGWYRQAPGKERELVAAISGGGGSTYYADSVKGRFTISRDNAKNTVYLQMNSLKPEDTAVYYCAARYTVYSATGRYYYWGQGTQVTVSS | high polyreactivity |
| QVQLVESGGGLLQAGGRLRLSCAASGSIFPYYAMGWYRQAPGKERALVAAISDSGDSTYYADSVKGRFTMSRDNAKNTVYLQMNSLKPEDTAVYYCAADQTSSYYDPWGDYWGQGTQVTVSS | low polyreactivity |
| QVQLVESGGGLVQAGGSLRLRCAASGRTFLPYAMGWSRQAPGKVRVLVAAIDSSGTSTYYADSVKGRFTISRDNAKNTVYLQMNSLKPEDTAVYYCAKAWPDHWYSRYDYWGQGTQVTVSS | low polyreactivity |
| QVQLVESGGGLVQAGGSLRLTCAASGIIFLDYVMGWYRQAPGKERELVAAINSGGSTYYADSVKGRFTISRDNAKNTVYLQMNSLKPEDTAVYYCAAVDYYKFDYWGQVTQVTVSS | low polyreactivity |
| QVQLVESGGGLVQAGCSLRLSWAASGRIFRPNSMGWYRQAPGKERELVAAITSNGGRTYYADSVKGRFTISRDNAKNTVYLQMNSLKPEDTAVYYCAKRVWYYSHKYDYWGQGTQVTVSS | high polyreactivity |
| QVQLVESGGGLVQAGGSLRLSCAASGFIFPGYAMGWYRQAPGKERELVAAISRSGGITYYADSVKGRFTISRDNAKNTVYLQMNSLKPEDTAVYYCAARDRVRDDYWGQGTQVTVSS | high polyreactivity |
| QVQLVESGGGLVQAGGSLRLSCAASGSIFTPNAMGGYRQAPGKERELVAAISSSSDRTYYADSVKGRFTISRDNAKNTVYLQMNRLKPEDTAVYYCAAYAQKRYYWGQGTQVTVSS | high polyreactivity |
| QVQLVESWGGLVQAGGSLRLSCAASGRTFRLYAMGWYRQAPGKERELVATNTSTGSTNYADSVKGRFTISRDNAKNTVFLQMNSLKPDDTAVYYCNAAWYNPKSWTQYPPFDYWGQGTQVTVSS | high polyreactivity |
| QVQLVESGGGLVQAGGSLRLSCAASGSIFISYAMGWYRQAPGKERELVAAISSGGSTNYADSVKGRFTISRDNAKNTVYLQMNSLIPEDTAVYYCAAASAAGYDYWGQGTQVTVSS | low polyreactivity |
| QVQLVESGGGLVQAGGSLRLSCAASGFTFYIYAMGWSRQAPGKERELVAAISSSGGSTYYADSVKGRFTISRDNAKNTVYLQMNSLNPEDTAVYYWNVVRYPVYRTRYYYWGQGTQVTVSS | high polyreactivity |
| QVQLVESGGGLVQAGGSLRLSCAASGSILQTNVMGWYRQAPGKEREFVAAIRWSTVSTYYADSVKGRFTISRDNAKNTVYLQMKSLKPEDTAVYYCASAKSWYSYKMDYWGQGTQVTVSS | low polyreactivity |
| QVQLEESWGGLVQAGGSLRLSCAASGRTFDTYAMGWNRQAPGKERELVAAITSGGSTYYADSVKGRFTISRDNAKNTVYLQMNSLKPEDTAVYYCAVSGQLYAYRYGYWGQGTQVTVSS | low polyreactivity |
| QVQLVESGGGLVQAGGSLRLSCAASGSIILGYAMGWYRQAPGKERELVAAIRRSSAGTYYADSVKGRFTISRDNAKNTVYLQMISLKPEDTAVYYCAWYPATYRWAYYYWGQGTQVTVSS | high polyreactivity |
| QVQLVESGGCLVQAGGSLRLSCAASGSIFSAYAMGWYRQAPGKERELVAGITSSGDSTYYADSVKGRFTISRDKAKNTVYLQMNSLKPEDTAVYYCNRVLGGVPFDHWGQGTQVTVSS | low polyreactivity |
| QVQLQESGGDLEQAGGSLRLSCTASGTISDVRVMGWYRQAPGKERELVATISYVTITYYADSVKGRFTISRDSEKHRVSADDEPETGRYGGVLLRYYWGLGTQVTVSS | low polyreactivity |
| QVQLVESGGGLVQAGGTLRLSCADSGSTFTYNAMGWYRQAPGKERELVASISSGTTTYYADSVKGRFTISRDNAKNTVYLQMNSLKPEDTAVYYCAVDSWSRVQGWLAHNYDYWGQGTQVTVSS | low polyreactivity |
| QVQLVESGGGLVQAGGSLRLSCAASGSISYEYAMGWYRPAPGKERELVASIDSDGAGTYYADSVKGRFTISRDNAKNTDYLQMNSLKPEDTAVYYCNAEWYYPYYYSRMDYWGQGTQVTVSS | low polyreactivity |
